Measured values from US20030152946A1, “Bh4-fused polypeptides” (priority 1999, published 2003).
Each block holds one molecule with its values, some of them ahead of it.

Assays:
Rat liver VDAC = target: T1, Rat liver VDAC (Rattus norvegicus, UniProt Q9Z2L0); assay: VDAC activity: sucrose uptake into VDAC liposomes (liposomal swelling, light scatter at 520 nm); assay type: biochemical; settings: for Inhibition of VDAC activity (VDAC-mediated sucrose uptake): 20 μg/ml protein or polypeptide
T1 construct: Rat liver VDAC was purified in accordance with a report made by Shimizu et al; from tissue; host or cells: rat liver (mitochondria)
Method: Purified VDAC was reconstituted in small unilamellar vesicles by the ultrasonic freeze-thaw procedure described in a report made by Shimizu et al. [Nature, 399, 483-487 (1999)]. Sucrose uptake experiment was performed by assessing liposomal swelling.
Liposomes produced at pH 5.2 were incubated at 25° C. in 1 ml of liposome buffer together with rBcl-xL, rΔ21, rBax or a polypeptide for 3 minutes. Here, acidic pH was a required condition for efficient uptake of rBcl-xL and rBax into the liposomes. Thereafter, sucrose was added up to a concentration of 50 mM to the mixture, and the liposomal swelling was assessed by the decrease in light scatter at a wavelength of 520 nm using a spectrophotometer (F-4500, manufactured by Hitachi, Ltd.). Sucrose uptake was also estimated from ^14C-sucrose uptake as described in the report made by Shimizu et al. [Nature, 399, 483-487(1999)].
Next, the functional role of the BH4 domain in the regulation of VDAC activity was examined. VDAC activity was measured by assessing sucrose uptake into VDAC-containing liposomes, using the two procedures: a method with radiolabeled sucrose described in a report made by Shimizu et al. [Nature, 399, 483-487 (1999)], and a method for measuring a sucrose uptake-dependent liposomal swelling that was monitored by decrease in light scatter. Since sucrose-uptake-dependent liposomal swelling was confirmed by microscopic observation or flow cytometric analysis, it is thought that the liposomal swelling is based on the rapid influx of sucrose and water through large VDAC pores which overwhelmed osmosis-dependent efflux of water.

VDAC = target: T2, VDAC (Rattus norvegicus, UniProt Q9Z2L0); assay: Co-immunoprecipitation with VDAC and Western blot; assay type: binding; settings: 20 μg/ml protein or polypeptide
T2 construct: from tissue; host or cells: rat liver (purified VDAC, or isolated mitochondria)
Method: Purified VDAC (20 μg/ml) was incubated with recombinant BCl-xL (rBcl-xL) and recombinant Δ21 (rΔ21), and the resulting mixture was immunoprecipitated with anti-Bcl-xL (L19) antibody and normal rabbit IgG. In order to detect interactions between polypeptide and VDAC, isolated mitochondria (1 mg) were incubated with 20 μg of Bcl-xL N-terminal polypeptide or Bcl-xL C-terminal polypeptide for 5 minutes. Thereafter, the resulting mitochondria were pelleted, washed, and suspended in a lysis buffer (10 mM HEPES, pH 7.4, 142.5 mM KCl, 5 mM MgCl2, 1 mM EGTA and 0.5% NP40) in the presence of proteinase inhibitors (0.1 mM p-APMSF, 10 μg/ml aprotinin, 1 μg/ml chymostatin, 1 μg/ml leupeptin, 1 μg/ml antipain, 1 μg/ml pepstatin), followed by ultrasonic disruption. Immunoprecipitation was carried out with anti-Bcl-x polyclonal antibodies corresponding to the polypeptides used. Co-immunoprecipitation of VDAC was detected by Western blotting using an anti-VDAC antibody.

HeLa cells = assay: VP16-induced apoptosis in HeLa cells in the presence of TAT-BH4 polypeptide; assay type: cell-based, human; settings: VP16 for 24 hours, polypeptide in the culture medium
Method: FIG. 17 is a diagram showing the results for evaluating the effect of TAT-BH4 polypeptide on VP16-induced apoptosis. Cells were treated with VP16 at the indicated concentrations for 24 hours in the presence of 100 μg/ml TAT-BH4 polypeptide (□) or TAT polypeptide (∘) or absence of polypeptide (●) and then stained with Hoechst 33342. Apoptotic cell death was determined by the morphology of nuclei using a fluorescence microscope. Data shown are from one of three independent experiments.
FIG. 18 is a diagram showing the results for evaluating the dose-dependent inhibition of VP16-induced apoptosis by TAT-BH4 polypeptide. […] Apoptotic cell death was determined in the same manner as in FIG. 17.
The inhibition and promotion of apoptosis can be evaluated by, for instance, the following method, without being limited thereto.
Therefore, in order to facilitate the transport of the BH4 polypeptide into cells, the above-mentioned TAT-BH4 polypeptide of 30 amino acid residues was synthesized, the polypeptide comprising N-terminal eosin-conjugated cystein and the PTD of HIV TAT protein fused to the Bcl-xL BH4 polypeptide. HeLa cells were treated with 200 μM VP16 in the presence of the TAT-BH4 polypeptide, and then observed by an optical phase-contrast microscope and a fluorescence microscope, respectively. […]

Rat liver mitochondria [1] = assay: Ca2+-induced ΔΨ loss in isolated mitochondria (Rhodamine 123 uptake); assay type: biochemical; settings: for Inhibition of Ca2+-induced mitochondrial ΔΨ loss: mitochondria 1 mg/ml, 40 μM Ca2+, 20 μg/ml protein or polypeptide
Method: (§1) Rat liver mitochondria (1 mg protein/ml) isolated in accordance with a report made by Shimizu et al. [Oncogene, 13, 21-29(1996)] were incubated at 25° C. in a medium containing 0.3 M mannitol, 10 mM HEPES/K^+ (pH 7.4), 0.1% fatty acid-free BSA, 1 mM potassium phosphate, 40 μM CaCl2 and 4.2 mM succinate for energization in the presence or absence of recombinant proteins.
ΔΨ was assessed by measuring the uptake of Rhodamine 123 (Rh123) as previously described by Shimizu et al. [Oncogene, 13, 21-29(1996)].
Isolated mitochondria (1 mg/ml) were incubated with 20 μg/ml Bcl-xL BH4 polypeptide in the presence of 40 μM Ca^2+, and thereafter Rhodamine 123 intensity was continuously monitored. The results are shown in the left panel of FIG. 14. In addition, isolated mitochondria (1 mg/ml) were incubated with 20 μg/ml BH4 polypeptide of Bcl-xL and any of various mutant polypeptides in the presence of 40 μM Ca for 15 minutes, and thereafter ΔΨ was measured by Rhodamine 123 intensity. The results are shown in the right panel of FIG. 14.

Rat liver mitochondria [2] = assay: Ca2+-induced cytochrome c release from isolated mitochondria (Western blot); assay type: biochemical; settings: mitochondria 1 mg/ml, 40 μM Ca2+, 20 μg/ml protein
Method: as §1
The cytochrome c release was evaluated by centrifuging the above-mentioned mitochondria, re-suspending the resulting pellets in an RIPA buffer to give mitochondria suspension, and subjecting the mitochondria suspension and supernatant to Western blot analysis using anti-cytochrome c antibodies.

Bax = target: T3, Bax (Homo sapiens, UniProt Q07812); assay: Binding of BH4 polypeptide to Bax
T3 construct: made in house

[3] = target: rat liver VDAC (voltage-dependent anion channel) (rat, UniProt Q9Z2L0 2-283); assay: cell-based or functional assay
Sequence of rat liver VDAC (voltage-dependent anion channel) (Q9Z2L0 2-283): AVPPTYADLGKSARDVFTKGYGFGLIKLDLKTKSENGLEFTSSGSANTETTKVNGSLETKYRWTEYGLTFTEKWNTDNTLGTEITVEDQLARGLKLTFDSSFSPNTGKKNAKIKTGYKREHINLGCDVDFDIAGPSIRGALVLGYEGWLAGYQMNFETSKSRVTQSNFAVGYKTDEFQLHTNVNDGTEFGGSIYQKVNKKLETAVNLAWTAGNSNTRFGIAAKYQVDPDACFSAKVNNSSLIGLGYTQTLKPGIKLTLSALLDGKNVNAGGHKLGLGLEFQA

T1 sequence (Q9Z2L0 whole entry): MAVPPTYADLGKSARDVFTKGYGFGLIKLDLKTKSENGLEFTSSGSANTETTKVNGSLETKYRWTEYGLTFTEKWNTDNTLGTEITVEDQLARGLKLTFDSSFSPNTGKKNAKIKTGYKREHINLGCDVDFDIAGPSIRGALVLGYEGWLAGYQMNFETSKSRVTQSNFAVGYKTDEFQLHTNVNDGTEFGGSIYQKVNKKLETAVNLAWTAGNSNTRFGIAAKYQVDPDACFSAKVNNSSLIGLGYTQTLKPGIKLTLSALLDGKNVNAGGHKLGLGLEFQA
T2 sequence (Q9Z2L0 whole entry): as above
T3 sequence (Q07812 whole entry): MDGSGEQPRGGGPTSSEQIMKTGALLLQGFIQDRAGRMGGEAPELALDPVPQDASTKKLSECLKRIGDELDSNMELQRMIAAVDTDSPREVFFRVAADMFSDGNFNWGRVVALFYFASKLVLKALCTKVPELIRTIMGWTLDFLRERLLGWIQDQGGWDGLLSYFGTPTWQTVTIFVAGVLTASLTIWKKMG

Molecule: ΔFL: F12L13 mutant of human Bcl-xL BH4 polypeptide (FIG. 13) (SNRELVVDSYKLSQKGYS) [reference compound]
Inhibition of VDAC activity (VDAC-mediated sucrose uptake) (Rat liver VDAC; VDAC liposomes, 50 mM sucrose): did not inhibit

Interaction with VDAC (co-immunoprecipitation) (VDAC): detected, although to a lesser extent
Molecule: N-terminal fragment (amino acid nos: 2 to 9) of Bcl-xL: N-terminal (amino acid nos: 2 to 19) polypeptide of Bcl-xL purchased from Santa Cruz Biotechnology (SQSNRELVVDFLSYKLSQ) [reference compound]

Molecule: eosin-C-RKKRRQRRR [TAT-only polypeptide, reference compound]
Inhibition of VP16-induced apoptosis (HeLa cells): did not significantly inhibit

Molecule: FL1213GG: F12L13 mutant of human Bcl-xL BH4 polypeptide (FIG. 13) (SNRELVVDGGSYKLSQKGYS) [reference compound]
Inhibition of VDAC activity (VDAC-mediated sucrose uptake) (Rat liver VDAC; VDAC liposomes, 50 mM sucrose): did not inhibit

Molecule: ΔLV: L8V9 mutant of human Bcl-xL BH4 polypeptide (FIG. 13) (SNREVDFLSYKLSQKGYS) [reference compound]
Inhibition of VDAC activity (VDAC-mediated sucrose uptake) (Rat liver VDAC; VDAC liposomes, 50 mM sucrose): did not inhibit

Inhibition of VDAC activity (VDAC-mediated sucrose uptake) (Rat liver VDAC; VDAC liposomes, 50 mM sucrose): did not affect
Molecule: rΔ21: recombinant human Bcl-xL lacking the N-terminus 21 amino acids residues (BH4 deletion mutant)
Inhibition of Ca2+-induced mitochondrial ΔΨ loss (Rat liver mitochondria [1]): did not virtually show inhibitory activity
Inhibition of Ca2+-induced cytochrome c release (Rat liver mitochondria [2]): did not virtually show inhibitory activity

Molecule: LV89GG: L8V9 mutant of human Bcl-xL BH4 polypeptide (FIG. 13) (SNREGGVDFLSYKLSQKGYS) [reference compound]
Inhibition of VDAC activity (VDAC-mediated sucrose uptake) (Rat liver VDAC; VDAC liposomes, 50 mM sucrose): did not inhibit

Molecule: L17W: Bcl-xL BH4 polypeptide with one amino acid substitution at L17 (SNRELVVDFLSYKWSQKGYS) [Polypeptide L17W, reference compound]
VDAC inhibitory activity as compared to VDAC inhibition of the normal BH4 polypeptide (fraction in words) (Rat liver VDAC; 20 μg/ml polypeptide, 50 mM sucrose): about one-half

Molecule: TGYDNREIVMKYIHYKLSQRGYEW (listed as Homo sapiens) [BH4 polypeptide derived from Bcl-2, amino acid nos: 7 to 30 of human Bcl-2]
Inhibition of VDAC activity (VDAC-mediated sucrose uptake) (Rat liver VDAC; VDAC liposomes, 50 mM sucrose): inhibited VDAC activity

Inhibition of VDAC activity (VDAC-mediated sucrose uptake) (Rat liver VDAC; VDAC liposomes, 50 mM sucrose): inactive
Molecule: VAQDTEEVFRSYVFYRHQQEQEAE [polypeptide derived from Bak, reference compound]

Inhibition of VDAC activity (VDAC-mediated sucrose uptake) (Rat liver VDAC; VDAC liposomes, 50 mM sucrose): inhibited
Effect on VDAC-free liposomes (Rat liver VDAC; VDAC-free liposomes): did not show any significant effect
Interaction with VDAC (co-immunoprecipitation) (VDAC): interacted with VDAC to a similar level
Molecule: rBcl-xL: recombinant human Bcl-xL expressed as GST fusion in Escherichia coli, GST cleaved with thrombin
Inhibition of Ca2+-induced mitochondrial ΔΨ loss (Rat liver mitochondria [1]): inhibited
Inhibition of Ca2+-induced cytochrome c release (Rat liver mitochondria [2]): inhibited

Molecule: SNRELVVDFLSYKLSQKGYS (listed as Homo sapiens) [BH4 polypeptide, amino acid nos: 4 to 23 of human Bcl-xL]
Inhibition of VP16-induced apoptosis (HeLa cells): no effect
Closure of VDAC (Rat liver VDAC; 20 μg/ml BH4 polypeptide): complete closure
Inhibition of rBax-induced enhancement of VDAC activity (Rat liver VDAC; VDAC liposomes, 5 μg/ml rBax, 50 mM sucrose): inhibited the rBax-induced enhancement of VDAC activity in a dose-dependent manner
Inhibition of VDAC activity (VDAC-mediated sucrose uptake) (Rat liver VDAC; VDAC liposomes, 50 mM sucrose): inhibited the VDAC activity in a concentration-dependent manner
Inhibition of VDAC activity (VDAC-mediated sucrose uptake) (Rat liver VDAC; VDAC liposomes, 50 mM sucrose, listed as BH4 polypeptide of BCl-xL): significantly inhibits
Molar concentration needed to inhibit ΔΨ loss and VDAC activity, relative to recombinant Bcl-xL (Rat liver mitochondria [1]; applies to Ca2+-induced ΔΨ loss and VDAC activity): about 25 fold
Inhibition of Ca2+-induced mitochondrial ΔΨ loss (Rat liver mitochondria [1]): significantly inhibits
Binding to Bax (Bax): did not bind

Molecule: LV89VF: L8V9 mutant of human Bcl-xL BH4 polypeptide (FIG. 13) (SNREVFVDFLSYKLSQKGYS) [reference compound]
Inhibition of VDAC activity (VDAC-mediated sucrose uptake) (Rat liver VDAC; VDAC liposomes, 50 mM sucrose): did not inhibit

molar concentration needed to inhibit Ca2+-induced membrane potential loss and VDAC activity, relative to recombinant Bcl-xL [3]: ~25 fold
Molecule: SNRELVVDFLSYKLSQKGYS [Human Bcl-xL BH4 polypeptide (amino acid nos: 4 to 23 of human Bcl-xL)]
